Consider one substance from paper PMC11665464.

Assay [1] concerns the target ALYREF-ΔNC, with the N- and C-terminal UAP56-binding motifs (UBMs) deleted (human) (UniProt Q86V81).
For assay [2] the target is unchanged. Briefly: pull-down; Nickel-NTA affinity pull-down: 2 ug His6-tagged ALYREF or variant with 4 ug UAP56 in 30 ul K buffer (20 mM KH2PO4 pH 7.4, 10% glycerol, 0.5 mM EDTA, 0.01% Igepal, 1 mM DTT) with 200 mM KCl and 15 mM imidazole, 30 min at 4 °C; captured on Ni-NTA resin, eluted with 2% SDS; SDS-PAGE, Coomassie stain.

UAP56, sequence (Q13838 whole entry): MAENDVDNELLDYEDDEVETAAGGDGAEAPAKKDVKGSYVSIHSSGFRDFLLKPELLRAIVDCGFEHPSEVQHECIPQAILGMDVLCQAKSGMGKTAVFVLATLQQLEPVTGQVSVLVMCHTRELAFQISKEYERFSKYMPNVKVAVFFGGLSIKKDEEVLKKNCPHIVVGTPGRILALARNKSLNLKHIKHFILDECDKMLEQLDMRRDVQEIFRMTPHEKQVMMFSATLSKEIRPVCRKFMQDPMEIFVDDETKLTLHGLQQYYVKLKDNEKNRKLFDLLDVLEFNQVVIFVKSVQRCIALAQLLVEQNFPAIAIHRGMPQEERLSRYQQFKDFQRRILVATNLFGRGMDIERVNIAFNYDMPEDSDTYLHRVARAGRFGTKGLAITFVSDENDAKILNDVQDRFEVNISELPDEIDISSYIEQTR

Regarding “UAP56 (from UniProt Q13838 1-428) (enzyme)”, the time course (5, 10, 15 min) of R-loop dissociation by 60 nM UAP56 with 6 nM ALYREF-ΔNC; fold increase at 5 min in assay [1] was 12 fold. Moreover, in assay [2], the percent of the ability to interact with UAP56 lost, against WT ALYREF was 80%.
